# Source: patent US8809529B2, “Imidazo[1,2-α]pyrazine derivatives” (Promega Corporation, priority 2010, dated 2014)
# Substitutions are numbered along the chain they refer to. Names may count otherwise.
# B1: L27V: 9B8 opt+K33N variant with L27V, T39T, K43R, Y68D (protein)
# chain: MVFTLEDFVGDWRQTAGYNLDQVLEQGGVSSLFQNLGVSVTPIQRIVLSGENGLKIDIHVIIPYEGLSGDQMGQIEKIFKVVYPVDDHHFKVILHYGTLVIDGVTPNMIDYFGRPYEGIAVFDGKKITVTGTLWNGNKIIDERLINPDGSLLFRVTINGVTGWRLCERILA
# B2: 9B8 opt: codon optimized version of the 9B8 variant (protein)
# chain: B1 chain with V29L, N35K, R45K, D70Y
# B3: 9B8: IV variant with Q18L, F68Y, L72Q, M75K; in Tables 12, 22, 23, 26, 27 “9B8” stands for 9B8 opt (protein)
# chain: B1 chain with V29L, N35K, R45K, D70Y
# How the values were obtained:
# [1] = Exposure of L27V to 3 M urea; type: physicochemical; conditions: 30 min at 25° C.
# Description: A 0.31 mg/mL stock of purified L27V variant was diluted 100,000-fold into buffer (PBS+1 mM DTT+0.005% IGEPAL) and incubated with 3 M urea for 30 min at 25° C. and then mixed 1:1 (50 μL+50 μL) with an assay reagent containing 100 μM PBI-3939 (previously described). The reactions were read on a TECAN® INFINITE® F500 luminometer as described previously (for 100 min; 1 min read intervals) (FIG. 89).
# [2] = Brightness of purified OgLuc variant compared to firefly luciferase; type: biochemical
# Description: The 9B8 OgLuc variant was overexpressed and purified as described in Example 33. Reactions between diluted enzyme and substrate were performed using the following 2× buffer/assay reagent: 100 mM MES pH 6.0, 1 mM CDTA, 150 mM KCl, 35 mM thiourea, 2 mM DTT, 0.25% TERGITOL® NP-9 (v/v), 0.025% MAZU® DF 204, 10 mg/mL […], and 20 μM PBI-3939. The final assay concentrations of purified enzyme and substrate were 0.5 pM and […], respectively. In parallel, reactions between diluted purified firefly luciferase (i.e., QUANTILUM® Recombinant Luciferase (Promega Corp.)) and luciferin were analyzed. The assay buffer/reagent for the firefly luciferase reaction was BRIGHT-GLO™, and the final assay concentrations were 0.5 pM enzyme and 500 μM luciferin. As the buffers/reagents for each reaction were known to provide “glow” kinetics, a 15 min time point was used to collect luminescence data.
# [3] = system: cAMP response element (CRE); test: CRE transcriptional reporter, forward transfection, HEK293 cells; type: cell-based, human; set-up: Response: scale not given here; conditions: for baseline: 10 nM FSK; for baseline / RLU (10 μM FSK): 3 h
# Description: HEK293 cells were plated at 15,000 cells/well in six 96-well tissue culture plates. Cells were grown in 100 μL of DMEM+10% FBS+1× non-essential amino acids (NEAA) and incubated overnight at 37° C. The cells were transiently transfected with either 10 ng or 100 ng plasmid DNA/well of pGL4.29 9B8 opt, pGL4.29 9B8 opt-P, or pGL4.29. Plasmid DNA was mixed with 850 μL of OPTI-MEM® (Invitrogen) and 32.4 μL of FUGENE® HD transfection reagent (Promega Corp.) and incubated at room temperature for 10 min. Eight μL of the transfection/reporter DNA mixture was added to the appropriate wells (2 constructs/plate). Cells were incubated for 4 hrs at 37° C. The medium was replaced with OPTI-MEM®+0.5% dialyzed FBS+1×NEAA+1× sodium pyruvate+1× Penn-Strep and incubated overnight at 37° C.
# A lytic reagent containing 100 mM MES pH 6.1, 1 mM CDTA, 150 mM KCl, 35 mM thiourea, 2 mM DTT, 0.25% TERGITOL® NP-9 (v/v), 0.025% MAZU® DF 204, and 20 μM PBI-3939 was added to the cells containing pGL4.29 9B8 opt or pGL4.29 9B8 opt-P and allowed to incubated for 10 min at room temperature (100 μL lytic reagent added to 100 μL cells). ONE-GLO™ assay reagent (Promega Corp.) was added to cells containing pGL4.29 and used according to the manufacturer's protocol (100 μL reagent added to 100 μL cells). Luminescence was measured on a GLOMAX® Luminometer.
# [4] = system: antioxidant response element (ARE); test: ARE transcriptional reporter, reverse transfection, HEK293 cells; type: cell-based, human; conditions: for baseline: 24 h, 100 ng DNA
# Description: HEK293 cells were trypsinized (T75 flask, 3 mL trypsin) and resuspended in […] (approximately 8.9×10^6 total cells) in medium containing DMEM+10% FBS+1×NEAA. Each transcriptional reporter was prepared for transfection by mixing 1.2 mL OPTI-MEM®, 12 μL transcription reporter DNA (100 ng) and 36 μL FUGENE® HD transfection reagent together and incubated at room temperature for 35 min. Following incubation, 624 μL of the transfection/reporter DNA mixture was added to 12 mL of cell suspension and mixed by inversion. After mixing, 100 μL of the cell/DNA mixture was added to wells of a 96-well plate (2 constructs/plate). The cells were incubated at 37° C. for 22 hrs. Tert-butylhydroquinone (a Nrf2 stabilizer; tBHQ; 1 μM (“baseline”) or 20 μM) or sulphoraphane, (an organosulfer antioxidant known to activate Nrf2; 1 μM (“baseline”) or 20 μM) in OPTI-MEM® was added to each well and incubated at 37° C. for 24 hrs. Cells were lysed with 100 μL lytic reagent as described above for the forward transfection. Luminescence was measured on a GLOMAX® Luminometer.
# [5] = system: antioxidant response element (ARE); test: as above; type: cell-based, human; conditions: 24 h, 100 ng DNA
# HEK293 cells = test: Stability of 9B8 and V2 in HEK293 cells; type: cell-based, human; conditions: HEK293 cells lysed in assay reagent, 20 μM PBI-3939
# Description: The variants 9B8 and V2 (9B8+K33N+T39T+K43R+Y68D) were also screened in HEK293 cells to determine their stability. The variants were cloned into pF4Ag and transfected into HEK293 cells (15,000 cells/well) as previously described. After transfection, the cells were lysed in assay reagent (as previously described; no PBI-3939), and luminescence measured using the assay reagent with 20 μM PBI-3939. […] This is consistent with the half-life seen for these variants in E. coli (Table 26).
molecule,measurement,setting,value
B1,reduction of activity by 3M urea,[1],approximately 50%
B2,brightness relative to QUANTILUM Recombinant Luciferase with BRIGHT-GLO,[2],approximately 8 fold
same,luminescence,"[2]; 0.5 pM enzyme, 15 min, 9B8 opt with PBI-3939, QUANTILUM with BRIGHT-GLO","19,200 RLU"
same,Response,[3]; 10 ng DNA for transfection,67
same,baseline,[3]; 10 ng DNA for transfection,192810
same,RLU (10 μM FSK),[3]; 10 ng DNA for transfection,"12,926,465 RLU"
same,Response,[3]; 100 ng DNA for transfection,34
same,baseline,[3]; 100 ng DNA for transfection,"3,078,418"
same,RLU (10 μM FSK),[3]; 100 ng DNA for transfection,"104,687,723 RLU"
same,baseline,[4]; 1 μM sulphoraphane,"15,600,000"
same,baseline,[4]; 1 μM tBHQ,"15,100,000"
same,Response,[4]; sulphoraphane,5.8
same,Response,[4]; tBHQ,8
same,RLU (20 μM sulphoraphane),[5],"89,600,000 RLU"
same,RLU (20 μM tBHQ),[5],"120,000,000 RLU"
B3,half-life,HEK293 cells,5.2 h
